Reference: patent US20210214444A1 (TAYU HUAXIA BIOTECH MEDICAL GROUP, published 2021)

Target: hPD-L1 (Fortebio Octet assay of Example 3) (human, UniProt Q9NZQ7 19-238, limits assumed)
Assay: BLI, Fortebio Octet; format not stated

hPD-L1 (Fortebio Octet assay of Example 3), sequence (Q9NZQ7 19-238 limits assumed): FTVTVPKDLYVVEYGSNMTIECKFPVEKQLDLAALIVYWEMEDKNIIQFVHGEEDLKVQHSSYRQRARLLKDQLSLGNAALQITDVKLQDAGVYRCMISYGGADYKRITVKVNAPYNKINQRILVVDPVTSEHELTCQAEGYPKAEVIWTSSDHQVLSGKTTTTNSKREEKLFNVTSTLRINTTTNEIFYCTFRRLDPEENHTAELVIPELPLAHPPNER

B1: humanized anti-hPD-L1 antibody variant 2 (antibody, V domains shown)
VH: QVQLVQSGAEVKKPGASVKVSCKASGFNIKDTYMYWVRQAPGQGLEWMGRIDPANDNTKYAQKFQGRVTITADTSTSTAYMELSSLRSEDTAVYYCARAKNLLNYFDYWGQGTLVTVSS
VL: DIQMTQSPSSLSASVGDRVTITCRASQEISGYLSWLQQKPGKAPKRLIYATSTLQSGVPSRFSGSRSGTDYTLTISSLQPEDFATYYCLQYAIYPLTFGQGTKLEIKR
notes: Human IgG1; also called Humanized VH 1 + Humanized VL2; anti-PD-L1 IgG1
- koff: 2.72e-05 s⁻¹
